Experimental data reported in the supplement of paper PMC10065799, “High-throughput profiling of sequence recognition by tyrosine kinases and SH2 domains using bacterial peptide display” (eLife, 2023).

Key:
FGFR1 = FGFR1 (UniProt P11362); test: phosphorylation enrichment, bacterial display (enrichment ratio); higher = better substrate or ligand; peptides without Tyr show the background
Fes = Fes (UniProt P07332); test: as above
EPHB2 = EPHB2 (UniProt P29323); test: as above
Fyn = Fyn (UniProt P06241); test: as above
Hck = Hck (UniProt P08631); test: as above
c-Abl (mouse) = test: as above
AncSZ = test: as above
c-Src = test: as above
Fer (mouse) = test: as above
EPHB1 = EPHB1 (UniProt P54762); test: as above
FGFR3 = FGFR3 (UniProt P22607); test: as above
MERTK = MERTK (UniProt Q12866); test: as above
Jak2 = Jak2 (UniProt O60674); test: as above
SHP2-C SH2 = test: SH2 binding enrichment of the phosphorylated peptide, bacterial display (enrichment ratio); higher = better substrate or ligand; peptides without Tyr show the background
c-Src SH2 = test: as above
Grb2 SH2 = Grb2 SH2 (UniProt P62993); test: as above
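Wherever SH2 binding enrichment of the phosphorylated peptide, bacterial display is given: peptide library displayed on the E. coli surface as eCPX fusions, selected cells deep-sequenced, score is each peptide's frequency after selection divided by its frequency in the input.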
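Wherever phosphorylation enrichment, bacterial display is given: 11-residue human phosphosite peptides and single-mutation variants displayed on the E. coli surface, counted by deep sequencing, each peptide's frequency after selection divided by its frequency in the unselected input library; frequency after pTyr selection over input frequency; kinase dosed for 20-30% of maximal phosphorylation in three min.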

Chain of EPHB2 (P29323 whole entry, looked up): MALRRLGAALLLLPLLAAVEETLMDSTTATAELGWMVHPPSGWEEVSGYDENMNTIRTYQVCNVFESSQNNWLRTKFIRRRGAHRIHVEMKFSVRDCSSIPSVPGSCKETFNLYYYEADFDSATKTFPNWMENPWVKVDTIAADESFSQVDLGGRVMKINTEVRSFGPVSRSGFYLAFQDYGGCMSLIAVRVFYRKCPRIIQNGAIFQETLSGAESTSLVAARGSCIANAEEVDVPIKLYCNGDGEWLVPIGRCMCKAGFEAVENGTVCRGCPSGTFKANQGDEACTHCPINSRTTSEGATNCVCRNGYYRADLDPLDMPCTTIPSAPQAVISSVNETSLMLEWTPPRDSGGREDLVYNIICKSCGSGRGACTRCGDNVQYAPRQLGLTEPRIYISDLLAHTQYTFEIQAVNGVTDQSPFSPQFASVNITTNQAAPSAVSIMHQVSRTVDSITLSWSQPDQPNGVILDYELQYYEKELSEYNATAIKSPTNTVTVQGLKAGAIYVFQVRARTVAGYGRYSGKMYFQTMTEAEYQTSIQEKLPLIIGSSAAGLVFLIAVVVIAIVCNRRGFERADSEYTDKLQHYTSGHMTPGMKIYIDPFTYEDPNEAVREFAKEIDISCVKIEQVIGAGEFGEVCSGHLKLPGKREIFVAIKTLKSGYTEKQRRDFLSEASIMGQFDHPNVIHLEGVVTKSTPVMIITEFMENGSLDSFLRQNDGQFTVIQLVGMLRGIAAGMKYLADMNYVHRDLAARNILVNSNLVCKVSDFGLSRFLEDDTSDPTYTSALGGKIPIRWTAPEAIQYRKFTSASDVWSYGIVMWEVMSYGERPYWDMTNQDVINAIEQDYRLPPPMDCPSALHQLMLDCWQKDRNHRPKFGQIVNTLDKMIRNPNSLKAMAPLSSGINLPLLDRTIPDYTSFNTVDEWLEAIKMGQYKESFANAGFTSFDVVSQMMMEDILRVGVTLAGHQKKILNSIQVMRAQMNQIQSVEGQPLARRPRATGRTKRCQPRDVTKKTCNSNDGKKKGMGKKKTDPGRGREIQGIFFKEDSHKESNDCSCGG
Chain of MERTK (Q12866 whole entry, looked up): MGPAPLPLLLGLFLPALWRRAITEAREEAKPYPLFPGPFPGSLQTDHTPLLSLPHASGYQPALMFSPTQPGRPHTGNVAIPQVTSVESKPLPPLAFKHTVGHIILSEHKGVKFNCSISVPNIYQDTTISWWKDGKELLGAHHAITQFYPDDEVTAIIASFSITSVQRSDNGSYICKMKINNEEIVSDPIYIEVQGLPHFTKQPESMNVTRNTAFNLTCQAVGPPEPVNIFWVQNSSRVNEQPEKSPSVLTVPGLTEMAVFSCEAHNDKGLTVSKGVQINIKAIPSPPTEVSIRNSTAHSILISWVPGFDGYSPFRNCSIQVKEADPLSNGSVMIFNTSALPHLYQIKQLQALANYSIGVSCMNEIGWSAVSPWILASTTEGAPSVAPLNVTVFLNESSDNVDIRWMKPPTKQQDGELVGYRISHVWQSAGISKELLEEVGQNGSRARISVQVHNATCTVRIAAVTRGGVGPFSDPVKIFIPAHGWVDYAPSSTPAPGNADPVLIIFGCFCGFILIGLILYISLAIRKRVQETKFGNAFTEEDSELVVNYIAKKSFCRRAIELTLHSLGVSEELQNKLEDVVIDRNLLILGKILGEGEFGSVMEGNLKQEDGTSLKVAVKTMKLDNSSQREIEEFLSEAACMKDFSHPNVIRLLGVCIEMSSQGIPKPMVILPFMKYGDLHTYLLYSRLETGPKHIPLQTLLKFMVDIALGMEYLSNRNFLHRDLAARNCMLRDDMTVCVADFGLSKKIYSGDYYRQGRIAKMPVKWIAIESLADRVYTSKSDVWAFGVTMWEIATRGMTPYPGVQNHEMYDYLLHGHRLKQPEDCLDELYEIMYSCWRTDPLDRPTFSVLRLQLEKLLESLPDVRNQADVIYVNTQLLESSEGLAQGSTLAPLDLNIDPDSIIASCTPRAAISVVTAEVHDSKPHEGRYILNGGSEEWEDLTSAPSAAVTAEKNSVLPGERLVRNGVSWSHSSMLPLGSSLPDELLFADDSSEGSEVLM
Chain of FGFR1 (P11362 whole entry, looked up): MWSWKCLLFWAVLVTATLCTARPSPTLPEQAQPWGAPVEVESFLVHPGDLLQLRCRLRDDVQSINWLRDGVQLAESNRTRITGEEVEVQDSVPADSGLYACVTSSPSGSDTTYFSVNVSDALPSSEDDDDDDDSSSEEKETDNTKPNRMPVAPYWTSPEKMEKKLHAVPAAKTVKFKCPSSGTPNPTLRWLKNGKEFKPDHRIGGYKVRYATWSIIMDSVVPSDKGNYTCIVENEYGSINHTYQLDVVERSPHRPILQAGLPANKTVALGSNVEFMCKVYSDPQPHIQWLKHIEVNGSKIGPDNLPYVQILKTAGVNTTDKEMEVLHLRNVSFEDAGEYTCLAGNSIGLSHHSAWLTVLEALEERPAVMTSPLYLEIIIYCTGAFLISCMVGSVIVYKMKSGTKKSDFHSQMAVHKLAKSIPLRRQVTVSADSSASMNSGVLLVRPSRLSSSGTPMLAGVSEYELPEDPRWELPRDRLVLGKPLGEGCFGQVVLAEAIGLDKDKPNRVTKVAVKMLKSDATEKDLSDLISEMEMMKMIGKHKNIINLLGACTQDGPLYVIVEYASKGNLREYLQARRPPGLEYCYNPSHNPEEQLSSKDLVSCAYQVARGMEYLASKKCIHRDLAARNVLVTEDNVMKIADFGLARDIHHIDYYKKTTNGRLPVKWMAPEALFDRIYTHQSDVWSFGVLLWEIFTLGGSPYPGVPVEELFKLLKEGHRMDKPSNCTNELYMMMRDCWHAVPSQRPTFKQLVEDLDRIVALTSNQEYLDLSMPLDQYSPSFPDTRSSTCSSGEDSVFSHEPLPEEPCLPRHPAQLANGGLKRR
Chain of Jak2 (O60674 whole entry, looked up): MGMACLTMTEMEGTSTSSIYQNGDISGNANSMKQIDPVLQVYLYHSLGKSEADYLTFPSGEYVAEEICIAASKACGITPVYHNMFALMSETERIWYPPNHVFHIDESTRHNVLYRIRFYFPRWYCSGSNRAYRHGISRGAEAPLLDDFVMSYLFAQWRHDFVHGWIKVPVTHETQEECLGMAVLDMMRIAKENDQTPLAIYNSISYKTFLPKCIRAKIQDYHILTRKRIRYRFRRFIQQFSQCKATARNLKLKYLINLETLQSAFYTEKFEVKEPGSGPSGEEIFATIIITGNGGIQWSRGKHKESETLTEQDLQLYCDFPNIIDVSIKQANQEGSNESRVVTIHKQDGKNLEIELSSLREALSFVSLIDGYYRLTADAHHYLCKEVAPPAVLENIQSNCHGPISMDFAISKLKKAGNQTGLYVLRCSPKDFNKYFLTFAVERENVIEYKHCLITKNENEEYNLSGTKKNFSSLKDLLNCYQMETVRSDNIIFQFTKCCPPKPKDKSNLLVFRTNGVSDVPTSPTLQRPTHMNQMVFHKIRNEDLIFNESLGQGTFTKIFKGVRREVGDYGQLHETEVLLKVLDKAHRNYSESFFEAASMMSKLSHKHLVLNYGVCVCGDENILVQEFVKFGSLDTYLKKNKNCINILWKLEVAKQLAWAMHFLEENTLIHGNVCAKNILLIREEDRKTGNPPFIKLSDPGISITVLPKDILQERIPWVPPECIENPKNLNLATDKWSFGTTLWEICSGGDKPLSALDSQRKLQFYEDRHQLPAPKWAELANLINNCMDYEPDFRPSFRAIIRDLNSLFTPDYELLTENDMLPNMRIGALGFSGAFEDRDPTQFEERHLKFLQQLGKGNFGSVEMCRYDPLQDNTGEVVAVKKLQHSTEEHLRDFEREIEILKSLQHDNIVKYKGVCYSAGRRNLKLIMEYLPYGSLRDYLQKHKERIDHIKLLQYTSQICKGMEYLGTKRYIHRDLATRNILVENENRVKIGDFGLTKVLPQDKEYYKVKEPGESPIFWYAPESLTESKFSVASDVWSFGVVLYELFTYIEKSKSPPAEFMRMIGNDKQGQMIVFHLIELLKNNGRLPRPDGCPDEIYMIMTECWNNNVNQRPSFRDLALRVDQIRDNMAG
Chain of Fyn (P06241 whole entry, looked up): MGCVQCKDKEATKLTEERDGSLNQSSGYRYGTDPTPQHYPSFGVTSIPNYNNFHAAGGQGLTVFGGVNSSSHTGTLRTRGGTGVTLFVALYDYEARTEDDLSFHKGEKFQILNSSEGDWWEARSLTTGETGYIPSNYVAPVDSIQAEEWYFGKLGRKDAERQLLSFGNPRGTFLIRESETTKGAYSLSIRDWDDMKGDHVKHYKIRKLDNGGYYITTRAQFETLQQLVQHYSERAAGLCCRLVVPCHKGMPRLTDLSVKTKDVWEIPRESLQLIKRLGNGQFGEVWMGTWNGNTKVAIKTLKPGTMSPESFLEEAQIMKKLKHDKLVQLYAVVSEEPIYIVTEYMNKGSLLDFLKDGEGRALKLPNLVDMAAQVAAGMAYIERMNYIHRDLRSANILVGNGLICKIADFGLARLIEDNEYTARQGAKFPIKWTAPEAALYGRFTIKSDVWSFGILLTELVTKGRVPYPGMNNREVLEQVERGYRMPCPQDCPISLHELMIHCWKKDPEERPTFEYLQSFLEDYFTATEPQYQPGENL
Chain of Hck (P08631 whole entry, looked up): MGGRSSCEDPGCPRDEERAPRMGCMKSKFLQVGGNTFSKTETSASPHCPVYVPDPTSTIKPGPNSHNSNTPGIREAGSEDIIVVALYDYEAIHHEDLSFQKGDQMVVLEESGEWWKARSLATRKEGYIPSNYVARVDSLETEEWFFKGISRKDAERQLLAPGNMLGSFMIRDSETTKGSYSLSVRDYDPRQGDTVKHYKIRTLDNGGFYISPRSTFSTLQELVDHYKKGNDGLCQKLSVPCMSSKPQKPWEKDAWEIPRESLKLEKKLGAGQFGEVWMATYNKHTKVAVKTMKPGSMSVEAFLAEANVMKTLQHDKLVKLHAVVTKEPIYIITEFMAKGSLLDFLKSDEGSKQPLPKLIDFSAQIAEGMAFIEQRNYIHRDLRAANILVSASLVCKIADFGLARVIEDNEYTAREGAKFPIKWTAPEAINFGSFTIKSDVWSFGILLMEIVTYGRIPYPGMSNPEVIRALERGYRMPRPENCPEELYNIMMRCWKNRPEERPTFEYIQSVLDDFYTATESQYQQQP

Row | Sequence | SH2 binding enrichment (SHP2-C SH2) | SH2 binding enrichment (c-Src SH2) | SH2 binding enrichment (Grb2 SH2) | phosphorylation enrichment (FGFR1) | phosphorylation enrichment (Fes) | phosphorylation enrichment (EPHB2) | phosphorylation enrichment (Fyn) | phosphorylation enrichment (Hck) | phosphorylation enrichment (c-Abl (mouse)) | phosphorylation enrichment (AncSZ) | phosphorylation enrichment (c-Src) | phosphorylation enrichment (Fer (mouse)) | phosphorylation enrichment (EPHB1) | phosphorylation enrichment (FGFR3) | phosphorylation enrichment (MERTK) | phosphorylation enrichment (Jak2)
1 | AEDKPYAELWM [MPI_Y46] | 1.21 | 2.15 | 0.778 | 1.45 | 1.34 | 0.729 | 2.27 | 1.44 | 0.854 | 1.38 | 3.47 | 10.8 | 0.868 | 1.34 | 1.4 | 1.09
2 | AESPEYVHMYT [FAM111A_Y511] | 0.586 | 0.693 | 0.768 | 1.92 | 1.01 | 0.491 | 0.423 | 0.469 | 0.825 | 1.34 | 0.531 | 0.467 | 0.486 | 1.26 | 0.413 | 0.962
3 | AGRSGYDNREI [BCL2_Y9_T7S] | 0.757 | 0.494 | 0.731 | 0.366 | 0.635 | 0.409 | 0.426 | 0.441 | 0.551 | 0.574 | 0.394 | 0.32 | 0.386 | 0.49 | 0.366 | 0.52
4 | AGTILYHAHLD [ASS1_Y291] | 0.74 | 0.477 | 0.949 | 0.535 | 0.703 | 0.78 | 0.479 | 0.523 | 0.509 | 0.591 | 0.451 | 0.398 | 0.526 | 0.497 | 0.561 | 0.495

Further lines, with some results ahead:

Row | SH2 binding enrichment (SHP2-C SH2) | SH2 binding enrichment (c-Src SH2) | SH2 binding enrichment (Grb2 SH2) | Sequence | phosphorylation enrichment (FGFR1) | phosphorylation enrichment (Fes) | phosphorylation enrichment (EPHB2) | phosphorylation enrichment (Fyn) | phosphorylation enrichment (Hck) | phosphorylation enrichment (c-Abl (mouse)) | phosphorylation enrichment (AncSZ) | phosphorylation enrichment (c-Src) | phosphorylation enrichment (Fer (mouse)) | phosphorylation enrichment (EPHB1) | phosphorylation enrichment (FGFR3) | phosphorylation enrichment (MERTK) | phosphorylation enrichment (Jak2)
5 | 0.584 | 0.494 | 0.775 | AEEEIYGIFGA [SRCtide_2014] | 0.615 | 1.31 | 1.36 | 5.63 | 4.39 | 3.69 | 2.1 | 4.49 | 3 | 1.36 | 0.89 | 3.88 | 1.35
6 | 0.903 | 0.608 | 0.755 | AFLQTYAHEVS [PCDHGA5_Y753_S754A] | 0.621 | 0.985 | 0.565 | 0.49 | 0.506 | 0.693 | 0.896 | 0.474 | 0.521 | 0.455 | 0.617 | 0.503 | 0.786
7 | 0.64 | 0.555 | 0.824 | AFSLKYDQQTQ [SYTL4_Y366_E367D] | 0.539 | 1.14 | 0.69 | 0.522 | 0.614 | 0.716 | 1.03 | 0.48 | 0.485 | 0.484 | 0.784 | 0.406 | 1.03
8 | 0.573 | 7.93 | 0.692 | AGDGRYEVLFL [SEMA3F_Y478_A474G] | 0.533 | 1.02 | 0.667 | 0.455 | 0.772 | 0.758 | 0.94 | 0.545 | 4.36 | 0.658 | 0.786 | 1.08 | 0.927
9 | 0.688 | 0.63 | 0.953 | AGQKDYDRLRP [RAC3_Y64_E62K] | 0.462 | 0.761 | 0.543 | 0.52 | 0.47 | 0.627 | 0.662 | 0.36 | 0.787 | 0.501 | 0.572 | 0.358 | 0.546
